From paper PMC5975648 come the findings set out here.

This data set is described as follows: confocal fluorescence microscopy, ER and mitochondria markers. The following applies: glycan lost; control: Psd1-EGFP.

B1: Psd1: Psd1(N34Q)-EGFP (protein)
parent chain: MSIMPVKNALAQGRTLLMGRMPAVKFSTRMQLRNRTAVLWNRKFSTRLFVQQRRSSGEIVDRAKAAAANSGRKQVSMKWVVLTSFTIVLGTILLVSRNDSTEEDATEGKKGRRTRKIKIFNNNWLFFCYSTLPLNAMSRLWGQVNSLTLPIWVRPWGYRLYSFLFGVNLDEMEDPDLTHYANLSEFFYRNIKPGTRPVAQGEDVIASPSDGKILQVGIINSETGEIEQVKGMTYSIKEFLGTHSHPLMSKSASSLDLTSDEEKHREFARVNRIQLAGSEDTEQPLLNFKNEGDQSVREFKPSVSKNIHLLSQLSLNYFSNGFSCSEPHDTELFFAVIYLAPGDYHHFHSPVDWVCKVRRHFPGDLFSVAPYFQRNFPNLFVLNERVALLGSWKYGFFSMTPVGATNVGSIKLNFDQEFVTNSKSDKHLEPHTCYQAVYENASKILGGMPLVKGEEMGGFELGSTVVLCFEAPTEFKFDVRVGDKVKMGQKLGIIGKNDLK
Regarding B1, the localisation_or_trafficking entry is listed as “no change”.
